These results are taken from US20150246949A1, “Desmoglein 2 (DSG2) Binding Proteins and Uses Therefor” (UNIVERSITY OF WASHINGTON THROUGH ITS CENTER FOR …, priority 2012, published 2015).

The target in assay [1] is T1, Recombinant human DSG2 protein (Leinco Technologies) (human, UniProt Q14126 50-609).
T1 construct: also called soluble DSG2; soluble recombinant DSG2
T1 sequence: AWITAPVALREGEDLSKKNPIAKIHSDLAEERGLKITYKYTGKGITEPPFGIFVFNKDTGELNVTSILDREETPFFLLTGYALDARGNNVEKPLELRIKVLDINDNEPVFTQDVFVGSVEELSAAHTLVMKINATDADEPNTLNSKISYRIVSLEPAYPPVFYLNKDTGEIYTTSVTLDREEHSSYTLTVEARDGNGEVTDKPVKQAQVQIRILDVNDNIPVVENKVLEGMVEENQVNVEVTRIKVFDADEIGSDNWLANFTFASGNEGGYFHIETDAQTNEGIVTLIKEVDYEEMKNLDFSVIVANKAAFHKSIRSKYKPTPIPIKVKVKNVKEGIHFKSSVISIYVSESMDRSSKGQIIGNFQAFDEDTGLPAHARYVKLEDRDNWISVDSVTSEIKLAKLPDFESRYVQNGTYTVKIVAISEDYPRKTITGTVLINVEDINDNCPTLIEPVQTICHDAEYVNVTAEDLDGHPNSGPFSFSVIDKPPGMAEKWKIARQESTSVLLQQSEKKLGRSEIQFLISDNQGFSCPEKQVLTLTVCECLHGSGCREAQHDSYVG
Kind of assay: SPR (BIAcore 3000), DSG2 immobilised on the sensor chip, knobs injected at 2.5 to 10 µg/ml, BIAeval.

Assay [2] addresses T1, Recombinant human DSG2 protein (Leinco …). Description: SPR (BIAcore 3000), DSG2 immobilised on CM4 chip, knob injected.
In another assay the target is T2, soluble CD46 (UniProt P15529 35-343).
T2 construct: also called sCD46
T2 sequence: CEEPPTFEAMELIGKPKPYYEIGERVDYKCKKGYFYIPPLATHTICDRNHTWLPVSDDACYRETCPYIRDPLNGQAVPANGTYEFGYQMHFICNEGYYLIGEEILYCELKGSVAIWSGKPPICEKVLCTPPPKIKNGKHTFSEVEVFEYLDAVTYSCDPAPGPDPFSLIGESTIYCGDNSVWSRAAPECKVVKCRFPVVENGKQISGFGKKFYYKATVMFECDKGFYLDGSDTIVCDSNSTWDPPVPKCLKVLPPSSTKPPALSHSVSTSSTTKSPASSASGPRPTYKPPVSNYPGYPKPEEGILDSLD
Kind of assay: Western blot, soluble CD46 as probe, anti-CD46 mAb.

Assay [3] concerns polarized colon cancer T84 cells. Kind of assay: Transepithelial electrical resistance (TEER) permeability assay. Format: cell-based. To be noted: for Effect on TEER: 5 μg dimeric Ad3 fiber knob added 1 hour to apical chamber. The procedure: (§1) FIG. 5. Correlation of reduced DSG2 binding with the ability to open epithelial junctions. A) Transepithelial electrical resistance (TEER) measured on polarized colon cancer T84 cells. Cells were cultured in transwell chambers until the TEER was constant, i.e. tight junctions had formed. A total of 5 μg of dimeric Ad3 fiber knobs in PBS was then added for 1 hour to the apical chamber. TEER was measured at the indicated time points. N=6. For time points 1.5 and 4 hours the difference between JO-1 vs D261N and N186D was significant (p<0.01). The arrows indicate the addition and removal of Ad3 fiber knobs. B) Enhancement of irinotecan therapy. A total of 4×10^6 A549 cells were injected subcutaneously into CB17-SCID/beige mice. Once the tumor reached a volume of ˜100 mm^3 (day 15 after implantation), the mice were injected intravenously with 2 mg/kg JO-1, E299V, N186D, or PBS, followed by an intravenous injection of irinotecan (37.5 mg/kg) one hour later. The treatment was repeated on day 25. N=5. […] The difference between “irinotecan” vs “JO-1+irinotecan” was significant (p<0.01) from day 20 on.
FIG. 9. Analysis of dimeric Ad3 fiber knob mutants with increased affinity to DSG2. A) Competition of Ad3-GFP virus infection on HeLa cells with dimeric affinity-enhanced mutant Y250F and JO-1 (dimeric wt Ad3 fiber knob). The experimental setting is as described for FIG. 3C. left panel: percentage of GFP positive cells. Right panel: mean fluorescence intensity. N=3. The standard deviation was less than 10%. B) Competition of Ad3-GFP virus infection on HeLa cells by Ad3 knob mutants with enhanced DSG2 binding but without dimerization domain. 1.5×10^5 HeLa cells were seeded into 24 well plates. Cells were incubated with the Ad3 knob mutants at the increasing concentrations for one hour at room temperature. 100 pfu/cell of Ad3GFP virus were then added and GFP expression was analyzed 18 hours later. C) TEER on colon cancer T84 cells. The experimental setting was the same as for FIG. 5A. The TEER at 4 hours is shown. N=3.
A total of 5×10^5 T84 cells were seeded in 12 mm transwell inserts (PET membrane, with 0.4 μm pore size (Corning, N.Y.) and cultured for >14 days until transepithelial electrical resistance (TEER) was stable. Culture medium was changed every 2-3 days. The cells were exposed to DSG2 ligands (20 μg/ml) in adhesion medium (DMEM, 1% FBS, 2 mM MgCl2, 20 mM HEPES) for 15 min at room temperature and TEER was measured and calculated as described elsewhere (39).

The next assay has as its system A549 xenograft tumors. Kind of assay: Enhancement of irinotecan therapy in A549 xenograft tumors. Particulars: 2 mg/kg i.v. one hour before irinotecan 37.5 mg/kg i.v.; days 15 and 25; N=5. The format is in vivo, CB17-SCID/beige mice. As for the experimental part: as §1
FIG. 10. Combination of affinity-enhanced JO-1 versions with chemotherapy. A) Enhancement of irinotecan (I) therapy. The experimental setting was the same as in FIG. 5B. […] N=5. […] Mammary fat pad tumors were established from primary ovarian cancer ovc316 cells. Treatment was started when tumors reached a volume of 100 mm^3 Mice were injected intravenously with 2 mg/kg JO-1 or with 0.5 mg/kg JO-4, followed by an intravenous injection of PEGylated liposomal doxorubicin (PLD) (1 mg/kg) one hour later. Treatment was repeated weekly. […] A total of 4×10^6 TNBC MDA-MB-231 cells were injected into the mammary fat pad of CB17 SCID-beige mice. JO-4 (2 mg/kg) was intravenously injected 1 hour before the application of cetuximab (C) (10 mg/kg, i.p.) and nab-paclitaxel (nab-P) (5 mg/kg, i.v). Treatment was given weekly. N=10 P<0.01 at day 25 for nab-P+C vs JO-4+nab-P+C.
A549, MDA-MB-231, and ovc316 xenograft tumors were established by injection of the corresponding tumor cells into the mammary fat pad (1:1 with Matrigel) of CB17 mice. TC1-DSG2 tumors were established by subcutaneous injection of TC1-DSG2 cells into DSG2 transgenic mice. JO-0, JO-1, JO-2, or JO-4 were intravenously injected one hour before the application of chemotherapeutic drugs: Irinotecan/Camptosar™ (Pfizer Inc., Groton, Conn.), PEGylated liposomal doxorubicin/Lipodox™ (Sun Pharmaceuticals IN, India), cetuximab/Erbitux™ (ImClone, Somerville, N.J.), nanoparticle albumin conjugated paclitaxel/Abraxane™ (Abraxis Biosciences, Summit N.J.). Tumor volumes were measured three times a week. Each treatment group consisted of a minimum of 5 mice.

“Also recorded” adds a separate entry of the source.

B1: wt Ad3 fiber knob without dimerization domain (ligand)
chain: NKLCSKLGNGLTFDSSNSIALKNNTLWTGPKPEANCIIEYGKQNPDSKLTLILVKNGGIVNGYVTLMGASDYVNTLFKNKNVSINVELYFDATGHILPDSSSLKTDLELKYKQTADFSARGFMPSTTAYPFVLPNAGTHNENYIFGQCYYKASDGALFPLEVTVMLNKRLPDSRTSYVMTFLWSLNAGLAPETTQATLITSPFTFSYIREDD
notes: range 108-319; also called wt Ad3knob/noDD; wt Ad3 knob (noDD); not shown: N-terminal 6-His tag of pQE30 and the Gly/Ser linker encoded by primer P1
Take B1: in assay [1], the dissociation constant Kd was determined as 10.1 µM, the off-rate (koff) was 0.00572 s⁻¹ and the kon stood at 527 M⁻¹ s⁻¹. The dissociation constant (Kd) in assay [2] was 10 µM.

B2: Ad3-S6/Kn (ligand)
chain: GVLSLKCVNPLTTASGSLQLKVGSGLTVDTTDGSLEENIKVNTPLTKSNHSINLPIGNGLQIEQNKLCSKLGNGLTFDSSNSIALKNNTLWTGPKPEANCIIEYGKQNPDSKLTLILVKNGGIVNGYVTLMGASDYVNTLFKNKNVSINVELYFDATGHILPDSSSLKTDLELKYKQTADFSARGFMPSTTAYPFVLPNAGTHNENYIFGQCYYKASDGALFPLEVTVMLNKRLPDSRTSYVMTFLWSLNAGLAPETTQATLITSPFTFSYIREDD
notes: also called wild-type Ad3 fibers
B2: in the assay with soluble CD46, the binding result is recorded as “no binding”.

B3: N186D (protein)
chain: MKVSALKEKVSALKEKVSALKEKVSALKEKVSALKEGSGGGSGGGSGGGSNSIALKNNTLWTGPKPEANCIIEYGKQNPDSKLTLILVKNGGIVNGYVTLMGASDYVNTLFKDKNVSINVELYFDATGHILPDSSSLKTDLELKYKQTADFSARGFMPSTTAYPFVLPNAGTHNENYIFGQCYYKASDGALFPLEVTVMLNKRLPDSRTSYVMTFLWSLNAGLAPETTQATLITSPFTFSYIREDD
Regarding B3, the “Effect on TEER” value in assay [3] was “intermediate effects”. Also, the “Enhancement of irinotecan therapy” value in the assay on A549 xenograft tumors is reported as “not significant”.

B4: JO-2: affinity enhanced version of JO-1; printed Y293D, Kd fits V239D; b41 links JO-2 to K217E/F224S (protein)
chain: MKVSALKEKVSALKEKVSALKEKVSALKEKVSALKEGSGGGSGGGSGGGSNSIALKNNTLWTGPKPEANCIIEYGKQNPDSKLTLILVKNGGIVNGYVTLMGASDYVNTLFKNKNVSINVELYFDATGHILPDSSSLKTDLELKYKQTADFSARGFMPSTTAYPFDLPNAGTHNENYIFGQCYYKASDGALFPLEVTVMLNKRLPDSRTSYVMTFLWSLNAGLAPETTQATLITSPFTFSYIREDD
Consider B4, for which the “TEER compared to JO-1” value in assay [3] (dimeric affinity-enhanced mutants, TEER at 4 hours, N=3) is reported as “significantly higher”. For the same molecule, in the assay with A549 xenograft tumors, the “Enhancement of irinotecan therapy” value is listed as “increased irinotecan therapy significantly more than JO-1; also recorded: significant from day 20 on”.

B5: E299V (protein)
chain: MKVSALKEKVSALKEKVSALKEKVSALKEKVSALKEGSGGGSGGGSGGGSNSIALKNNTLWTGPKPEANCIIEYGKQNPDSKLTLILVKNGGIVNGYVTLMGASDYVNTLFKNKNVSINVELYFDATGHILPDSSSLKTDLELKYKQTADFSARGFMPSTTAYPFVLPNAGTHNENYIFGQCYYKASDGALFPLEVTVMLNKRLPDSRTSYVMTFLWSLNAGLAPVTTQATLITSPFTFSYIREDD
For B5, the “Effect on TEER” value in assay [3] is reported as “intermediate effects”. Moreover, the “Enhancement of irinotecan therapy” value with A549 xenograft tumors was “not significant”.

B6: Ad3-S3/Kn (ligand)
chain: HSINLPIGNGLQIEQNKLCSKLGNGLTFDSSNSIALKNNTLWTGPKPEANCIIEYGKQNPDSKLTLILVKNGGIVNGYVTLMGASDYVNTLFKNKNVSINVELYFDATGHILPDSSSLKTDLELKYKQTADFSARGFMPSTTAYPFVLPNAGTHNENYIFGQCYYKASDGALFPLEVTVMLNKRLPDSRTSYVMTFLWSLNAGLAPETTQATLITSPFTFSYIREDD
notes: as for B2
For the molecule B6, the binding result with soluble CD46 is “no binding”.

B7: Ad3-S5/Kn (ligand)
chain: GSLQLKVGSGLTVDTTDGSLEENIKVNTPLTKSNHSINLPIGNGLQIEQNKLCSKLGNGLTFDSSNSIALKNNTLWTGPKPEANCIIEYGKQNPDSKLTLILVKNGGIVNGYVTLMGASDYVNTLFKNKNVSINVELYFDATGHILPDSSSLKTDLELKYKQTADFSARGFMPSTTAYPFVLPNAGTHNENYIFGQCYYKASDGALFPLEVTVMLNKRLPDSRTSYVMTFLWSLNAGLAPETTQATLITSPFTFSYIREDD
notes: as for B2
Turning to B7, the binding result with soluble CD46 is “no binding”.

B8: Ad3-S4/Kn (ligand)
chain: GSLEENIKVNTPLTKSNHSINLPIGNGLQIEQNKLCSKLGNGLTFDSSNSIALKNNTLWTGPKPEANCIIEYGKQNPDSKLTLILVKNGGIVNGYVTLMGASDYVNTLFKNKNVSINVELYFDATGHILPDSSSLKTDLELKYKQTADFSARGFMPSTTAYPFVLPNAGTHNENYIFGQCYYKASDGALFPLEVTVMLNKRLPDSRTSYVMTFLWSLNAGLAPETTQATLITSPFTFSYIREDD
notes: as for B2
For B8, the binding result with soluble CD46 is “no binding”.

B9: Ad3-S2/Kn (ligand)
chain: KLCSKLGNGLTFDSSNSIALKNNTLWTGPKPEANCIIEYGKQNPDSKLTLILVKNGGIVNGYVTLMGASDYVNTLFKNKNVSINVELYFDATGHILPDSSSLKTDLELKYKQTADFSARGFMPSTTAYPFVLPNAGTHNENYIFGQCYYKASDGALFPLEVTVMLNKRLPDSRTSYVMTFLWSLNAGLAPETTQATLITSPFTFSYIREDD
notes: as for B2
For B9, in the assay with soluble CD46, the binding result was “no binding”.
